Experimental findings from publication PMC12102759 (2025) are described below.

First the molecules themselves.
B1: CBL peptide 540-555 (E3 ubiquitin-protein ligase CBL), 16-mer library wild type / YES SH3 (YES1 SH3 domain, residues 90-152) (parent complex)
chain 1: RDLPPPPPPDRPYSVG
chain 2: not shown
B2: PIP5K1C peptide 642-657 (Phosphatidylinositol 4-phosphate 5-kinase type-1 gamma), 16-mer library wild type / TLN1 PTB (TLN1 Phosphotyrosine-binding (PTB) domain, residues 309-401) (parent complex)
chain 1: TDERSWVYSPLHYSAQ
chain 2: GVSFFLVKEKMKGKNKLVPRLLGITKECVMRVDEKTKEVIQEWNLTNIKRWAASPKSFTLDFGDYQDGYYSVQTTEGEQIAQLIAGYIDIILK

One test covers variants of B1. As to the kind of experiment: proteomic peptide phage display deep mutational scan (ProP-PD DMS): M13 P8 16-mer library selected against immobilised GST-tagged bait for four days (rounds), NGS of the eluted pools per day and pseudo-replica; bait immobilised on MaxiSorp plates (10 µg), library pre-cleared on GST, 2 h binding at 4 °C, five washes; one round per day, days 1-4; value from days 2 and 3.
In the case of chain 1 R11D, the screen value was 0.000209 average fractional NGS count over selection days 2 and 3 (reads of this peptide / all reads for the bait, averaged over ….

Consider chain 1 R11L, for which the screen value is 0.00999 average fractional NGS count over selection days 2 and 3 (reads of this peptide / all reads for the bait, averaged over ….

In the case of chain 1 R11F, the screen value was 0.00146 average fractional NGS count over selection days 2 and 3 (reads of this peptide / all reads for the bait, averaged over ….

As for chain 1 R11E, the screen value is 0.000556 average fractional NGS count over selection days 2 and 3 (reads of this peptide / all reads for the bait, averaged over ….

Consider chain 1 R11H, for which the screen value is 0.000484 average fractional NGS count over selection days 2 and 3 (reads of this peptide / all reads for the bait, averaged over ….

With chain 1 R11P, the screen value was 0.00145 average fractional NGS count over selection days 2 and 3 (reads of this peptide / all reads for the bait, averaged over ….

In the case of chain 1 R11T, the screen value is 0.00408 average fractional NGS count over selection days 2 and 3 (reads of this peptide / all reads for the bait, averaged over ….

Take chain 1 R11V: the screen value is 0.00622 average fractional NGS count over selection days 2 and 3 (reads of this peptide / all reads for the bait, averaged over ….

Regarding chain 1 R11K, the screen value was 0.000739 average fractional NGS count over selection days 2 and 3 (reads of this peptide / all reads for the bait, averaged over ….

As to chain 1 R11M, the screen value is 0.00776 average fractional NGS count over selection days 2 and 3 (reads of this peptide / all reads for the bait, averaged over ….

For chain 1 R11S, the screen value was 0.000485 average fractional NGS count over selection days 2 and 3 (reads of this peptide / all reads for the bait, averaged over ….

chain 1 R11A: the screen value was 8.11e-05 average fractional NGS count over selection days 2 and 3 (reads of this peptide / all reads for the bait, averaged over ….

On to chain 1 P12Q, for which the screen value was 0.0162 average fractional NGS count over selection days 2 and 3 (reads of this peptide / all reads for the bait, averaged over ….

chain 1 P12A: the screen value was 0.00443 average fractional NGS count over selection days 2 and 3 (reads of this peptide / all reads for the bait, averaged over ….

chain 1 P12Y: the screen value was 0.000171 average fractional NGS count over selection days 2 and 3 (reads of this peptide / all reads for the bait, averaged over ….

Turning to chain 1 P12F, the screen value is 0.00458 average fractional NGS count over selection days 2 and 3 (reads of this peptide / all reads for the bait, averaged over ….

As for chain 1 P12I, the screen value was 0.00216 average fractional NGS count over selection days 2 and 3 (reads of this peptide / all reads for the bait, averaged over ….

For chain 1 P12H, the screen value was 0.00204 average fractional NGS count over selection days 2 and 3 (reads of this peptide / all reads for the bait, averaged over ….

Turning to chain 1 P7Q, the screen value is 0.000262 average fractional NGS count over selection days 2 and 3 (reads of this peptide / all reads for the bait, averaged over ….

As to chain 1 P7L, the screen value is 0.00235 average fractional NGS count over selection days 2 and 3 (reads of this peptide / all reads for the bait, averaged over ….

As to chain 1 P7K, the screen value was 0.000178 average fractional NGS count over selection days 2 and 3 (reads of this peptide / all reads for the bait, averaged over ….

chain 1 P7I: the screen value is 0.000596 average fractional NGS count over selection days 2 and 3 (reads of this peptide / all reads for the bait, averaged over ….

Take chain 1 P7R: the screen value was 0.000229 average fractional NGS count over selection days 2 and 3 (reads of this peptide / all reads for the bait, averaged over ….

Consider chain 1 P7E, for which the screen value was 0.000775 average fractional NGS count over selection days 2 and 3 (reads of this peptide / all reads for the bait, averaged over ….

Regarding chain 1 P7M, the screen value was 0.00246 average fractional NGS count over selection days 2 and 3 (reads of this peptide / all reads for the bait, averaged over ….

For the variant chain 1 P7A, the screen value was 0.000371 average fractional NGS count over selection days 2 and 3 (reads of this peptide / all reads for the bait, averaged over ….

For the variant chain 1 P7F, the screen value is 0.00308 average fractional NGS count over selection days 2 and 3 (reads of this peptide / all reads for the bait, averaged over ….

For chain 1 P7Y, the screen value is 0.000167 average fractional NGS count over selection days 2 and 3 (reads of this peptide / all reads for the bait, averaged over ….

With chain 1 P7N, the screen value was 0.000153 average fractional NGS count over selection days 2 and 3 (reads of this peptide / all reads for the bait, averaged over ….

For chain 1 P7G, the screen value is 9.71e-05 average fractional NGS count over selection days 2 and 3 (reads of this peptide / all reads for the bait, averaged over ….

Take chain 1 P7W: the screen value is 0.000156 average fractional NGS count over selection days 2 and 3 (reads of this peptide / all reads for the bait, averaged over ….

Regarding chain 1 P7T, the screen value was 0.00618 average fractional NGS count over selection days 2 and 3 (reads of this peptide / all reads for the bait, averaged over ….

chain 1 P7H: the screen value was 0.00103 average fractional NGS count over selection days 2 and 3 (reads of this peptide / all reads for the bait, averaged over ….

For the variant chain 1 P9R, the screen value was 0.000295 average fractional NGS count over selection days 2 and 3 (reads of this peptide / all reads for the bait, averaged over ….

Regarding chain 1 P9S, the screen value was 0.000868 average fractional NGS count over selection days 2 and 3 (reads of this peptide / all reads for the bait, averaged over ….

Take chain 1 P9L: the screen value was 0.00194 average fractional NGS count over selection days 2 and 3 (reads of this peptide / all reads for the bait, averaged over ….

As to chain 1 P9Q, the screen value was 0.00144 average fractional NGS count over selection days 2 and 3 (reads of this peptide / all reads for the bait, averaged over ….

On to chain 1 P9W, for which the screen value is 0.00602 average fractional NGS count over selection days 2 and 3 (reads of this peptide / all reads for the bait, averaged over ….

chain 1 P9A: the screen value is 0.00224 average fractional NGS count over selection days 2 and 3 (reads of this peptide / all reads for the bait, averaged over ….

Consider chain 1 P9D, for which the screen value is 0.00109 average fractional NGS count over selection days 2 and 3 (reads of this peptide / all reads for the bait, averaged over ….

For the variant chain 1 P8A, the screen value was 0.00106 average fractional NGS count over selection days 2 and 3 (reads of this peptide / all reads for the bait, averaged over ….

For the variant chain 1 P8N, the screen value was 0.00013 average fractional NGS count over selection days 2 and 3 (reads of this peptide / all reads for the bait, averaged over ….

Take chain 1 P8E: the screen value is 0.00198 average fractional NGS count over selection days 2 and 3 (reads of this peptide / all reads for the bait, averaged over ….

For chain 1 P8M, the screen value was 0.00164 average fractional NGS count over selection days 2 and 3 (reads of this peptide / all reads for the bait, averaged over ….

As to chain 1 P8W, the screen value was 0.00267 average fractional NGS count over selection days 2 and 3 (reads of this peptide / all reads for the bait, averaged over ….

As to chain 1 P8S, the screen value was 0.00243 average fractional NGS count over selection days 2 and 3 (reads of this peptide / all reads for the bait, averaged over ….

As for chain 1 P8L, the screen value is 0.000348 average fractional NGS count over selection days 2 and 3 (reads of this peptide / all reads for the bait, averaged over ….

Turning to chain 1 P8V, the screen value is 0.0212 average fractional NGS count over selection days 2 and 3 (reads of this peptide / all reads for the bait, averaged over ….

On to chain 1 P8I, for which the screen value was 0.000285 average fractional NGS count over selection days 2 and 3 (reads of this peptide / all reads for the bait, averaged over ….

For chain 1 P8F, the screen value is 0.00526 average fractional NGS count over selection days 2 and 3 (reads of this peptide / all reads for the bait, averaged over ….

In the case of chain 1 P8K, the screen value is 0.000519 average fractional NGS count over selection days 2 and 3 (reads of this peptide / all reads for the bait, averaged over ….

As for chain 1 Y13E, the screen value is 0.000222 average fractional NGS count over selection days 2 and 3 (reads of this peptide / all reads for the bait, averaged over ….

Consider chain 1 Y13G, for which the screen value is 8.54e-05 average fractional NGS count over selection days 2 and 3 (reads of this peptide / all reads for the bait, averaged over ….

Take chain 1 Y13L: the screen value is 0.00594 average fractional NGS count over selection days 2 and 3 (reads of this peptide / all reads for the bait, averaged over ….

Take chain 1 Y13I: the screen value was 0.00384 average fractional NGS count over selection days 2 and 3 (reads of this peptide / all reads for the bait, averaged over ….

As for chain 1 Y13R, the screen value is 0.000326 average fractional NGS count over selection days 2 and 3 (reads of this peptide / all reads for the bait, averaged over ….

Consider chain 1 Y13A, for which the screen value was 0.00126 average fractional NGS count over selection days 2 and 3 (reads of this peptide / all reads for the bait, averaged over ….

With chain 1 V15A, the screen value is 0.00486 average fractional NGS count over selection days 2 and 3 (reads of this peptide / all reads for the bait, averaged over ….

Regarding chain 1 V15H, the screen value was 0.00504 average fractional NGS count over selection days 2 and 3 (reads of this peptide / all reads for the bait, averaged over ….

For chain 1 V15N, the screen value is 0.00181 average fractional NGS count over selection days 2 and 3 (reads of this peptide / all reads for the bait, averaged over ….

As to chain 1 V15E, the screen value is 0.00362 average fractional NGS count over selection days 2 and 3 (reads of this peptide / all reads for the bait, averaged over ….

Consider chain 1 V15S, for which the screen value is 0.00131 average fractional NGS count over selection days 2 and 3 (reads of this peptide / all reads for the bait, averaged over ….

Consider chain 1 V15P, for which the screen value was 0.00539 average fractional NGS count over selection days 2 and 3 (reads of this peptide / all reads for the bait, averaged over ….

In the case of chain 1 V15I, the screen value was 7.73e-05 average fractional NGS count over selection days 2 and 3 (reads of this peptide / all reads for the bait, averaged over ….

Regarding chain 1 V15L, the screen value is 0.000286 average fractional NGS count over selection days 2 and 3 (reads of this peptide / all reads for the bait, averaged over ….

On to chain 1 V15M, for which the screen value is 0.00453 average fractional NGS count over selection days 2 and 3 (reads of this peptide / all reads for the bait, averaged over ….

As to chain 1 V15T, the screen value is 0.000212 average fractional NGS count over selection days 2 and 3 (reads of this peptide / all reads for the bait, averaged over ….

For chain 1 V15G, the screen value is 0.000446 average fractional NGS count over selection days 2 and 3 (reads of this peptide / all reads for the bait, averaged over ….

For the variant chain 1 V15W, the screen value is 0.0167 average fractional NGS count over selection days 2 and 3 (reads of this peptide / all reads for the bait, averaged over ….

In the next test the parent is B2. The description is as above.
As for chain 1 V7F, the screen value is 0.00058 average fractional NGS count over selection days 2 and 3 (reads of this peptide / all reads for the bait, averaged over ….

On to chain 1 S5G, for which the screen value was 0.000211 average fractional NGS count over selection days 2 and 3 (reads of this peptide / all reads for the bait, averaged over ….

chain 1 S5Q: the screen value was 0.000811 average fractional NGS count over selection days 2 and 3 (reads of this peptide / all reads for the bait, averaged over ….

For chain 1 D2G, the screen value is 0.00241 average fractional NGS count over selection days 2 and 3 (reads of this peptide / all reads for the bait, averaged over ….

On to chain 1 W6F, for which the screen value is 0.000288 average fractional NGS count over selection days 2 and 3 (reads of this peptide / all reads for the bait, averaged over ….

Take chain 1 S14E: the screen value is 0.00034 average fractional NGS count over selection days 2 and 3 (reads of this peptide / all reads for the bait, averaged over ….
